Experimental data: patent US20170174756A1 (AstraZeneca / MedImmune, published 2017)
Values joined by “and” are separate entries in the source; they are usually repeats but may differ in a detail not shown here. Equal entries are not always repeated.

Biological target: T1, Biotin Ang2 (R & D Systems) (UniProt O15123 19-496, biotinylated (sites not given))
T1 sequence (looked up): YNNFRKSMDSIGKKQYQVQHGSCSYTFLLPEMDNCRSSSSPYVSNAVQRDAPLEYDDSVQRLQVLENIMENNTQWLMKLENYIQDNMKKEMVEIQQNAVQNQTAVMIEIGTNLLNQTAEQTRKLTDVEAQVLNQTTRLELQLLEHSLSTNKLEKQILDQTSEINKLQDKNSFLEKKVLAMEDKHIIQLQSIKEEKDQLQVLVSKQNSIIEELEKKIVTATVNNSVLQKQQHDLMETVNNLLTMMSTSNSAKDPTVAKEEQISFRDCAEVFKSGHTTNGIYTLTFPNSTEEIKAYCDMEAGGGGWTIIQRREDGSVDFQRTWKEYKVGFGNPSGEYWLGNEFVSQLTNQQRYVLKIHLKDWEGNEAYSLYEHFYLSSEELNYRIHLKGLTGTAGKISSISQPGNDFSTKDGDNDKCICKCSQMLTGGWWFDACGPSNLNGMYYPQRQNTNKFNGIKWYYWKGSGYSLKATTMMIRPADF
Experiment: competition ELISA: Tie-2 Fc coated on the plate, antibody varied, blocked ligand binding is Biotin Ang2 to Tie-2 Fc, streptavidin HRP, O.D. 450 nm
Method: The following day, plates were blocked for 1 hour at room temperature with 200 μl of phosphate buffered saline (PBS) (Invitrogen, Carlsbad, Calif.) containing 0.5% bovine serum albumin (BSA) (Sigma, St. Louis, Mo.) and 0.1% Tween-20 (Sigma, St. Louis, Mo.). Plates were washed 3 times with wash buffer (PBS containing 0.05% Tween-20). […] Plates were washed 3 times with wash buffer. Following the wash, 100 ul of 1:5000 streptavidin HRP (Pierce, Rockford, Ill.) dilution in wash buffer were added and incubated for 1 hour at room temperature. Plates were washed 3 times with wash buffer. Plates were developed by adding 100 μl of TMB peroxidase substrate (KPL, Gaithersburg, Md.) for 5 minutes. The reaction was stopped by adding 100 μl/well of 1M phosphoric acid. Optical densities were measured at 450 nm with a microplate reader (Molecular Devices, Sunnyvale, Calif.).

B1: Ang-2 antibody 3.19.3 (antibody, V domains shown)
VH: QVQLVESGGGVVQPGRSLRLSCAASGFTFTNYGMHWGRQAPGKGLEWVAVISHDGNNKYYVDSVKGRFTISRDNSKNTLYLQMNSLRAEDTAVYYCAREGIDFWSGLNWFDPWGQGTLVTVSS
VL: EIVLTQSPGTLSLSPGERATLSCRASQSITGSYLAWYQQKPGQAPRLLICGASSWATGIPDRFSGSGSGTDFTLTISRLEPEDFAVYYCQQYSSSPITFGQGTRLEIKR
notes: Fully human monoclonal antibody; also called WT
- IC50 (read off the curve): ~0.1 µg/mL and ~0.2 µg/mL
